Data reported in patent US20230057461A1 (US Dept. of Health and Human Services, published 2023).

Target: T1, Rab escort protein REP-1 (UniProt P24386 1-653)
T1 construct: Endogenous protein detected by Western blot (Abcam cat# 134964)
T1 sequence (looked up): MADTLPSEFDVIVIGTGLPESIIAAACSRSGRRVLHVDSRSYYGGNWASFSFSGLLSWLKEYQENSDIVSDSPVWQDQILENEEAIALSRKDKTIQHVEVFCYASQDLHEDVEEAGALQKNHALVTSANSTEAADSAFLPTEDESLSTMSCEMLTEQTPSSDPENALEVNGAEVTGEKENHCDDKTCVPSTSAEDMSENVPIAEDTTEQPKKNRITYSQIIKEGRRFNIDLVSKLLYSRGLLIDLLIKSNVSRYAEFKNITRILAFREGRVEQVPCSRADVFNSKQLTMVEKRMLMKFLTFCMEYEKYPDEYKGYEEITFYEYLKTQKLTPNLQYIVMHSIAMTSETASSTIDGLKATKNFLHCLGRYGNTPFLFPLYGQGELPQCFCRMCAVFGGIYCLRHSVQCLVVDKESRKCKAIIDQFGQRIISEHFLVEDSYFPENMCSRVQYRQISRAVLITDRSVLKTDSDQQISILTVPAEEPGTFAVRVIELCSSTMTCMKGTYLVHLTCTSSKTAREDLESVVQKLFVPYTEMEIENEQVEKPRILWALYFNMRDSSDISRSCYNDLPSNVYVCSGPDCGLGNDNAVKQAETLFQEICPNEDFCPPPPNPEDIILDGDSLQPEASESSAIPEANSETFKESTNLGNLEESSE
Assay: co-immunoprecipitation of GFP-Rab13 with GFP-Trap beads from MDA-MB-231 lysates, Western blot
Method: For immunoprecipitations, cells were lysed with a buffer containing 50mM Tris pH 7.4, 1% NP-40, 150mM NaCl, 10mM MgC12, 10% glycerol and a cocktail of protease and phosphatase inhibitors (Thermo Fischer Scientific, cat# 1861281). Lysates were cleared by centrifugation and mixed with GFP-Trap Magnetic Agarose beads (Chromotek, cat# gtma-10) for 1.5 h, at 4° C. Immobilized complexes were eluted with Laemmli's buffer and analyzed by SDS-PAGE and immunoblotting.

B1: GFP-Rab13 (N-terminally GFP-tagged human Rab13) (other, UniProt P51153 1-203, looked up, not shown: large carriers)
chain: MAKAYDHLFKLLLIGDSGVGKTCLIIRFAEDNFNNTYISTIGIDFKIRTVDIEGKKIKLQVWDTAGQERFKTITTAYYRGAMGIILVYDITDEKSFENIQNWMKSIKENASAGVERLLLGNKCDMEAKRKVQKEQADKLAREHGIRFFETSAKSSMNVDEAFSSLARDILLKSGGRRSGNGNKPPSTDLKTCDKKNTNKCSLG
notes: Stably expressed in MDA-MB-231 cells from constructs with the wild type or the delta-PMO Rab13 3'UTR; the encoded protein is the same; Assayed from cell lysates; also called exogenous GFP-Rab13; exogenous Rab13
  binding result: binds
